B1: Pyocin S2: S-type pyocin, SEQ ID NO: 1; targeting domain binds FpvAI, effector has DNase activity (protein, listed as Pseudomonas aeruginosa)
chain: MAVNDYEPGSMVITHVQGGGRDIIQYIPARSSYGTPPFVPPGPSPYVGTGMQEYRKLRSTLDKSHSELKKNLKNETLKEVDELKSEAGLPGKAVSANDIRDEKSIVDALMDAKAKSLKAIEDRPANLYTASDFPQKSESMYQSQLLASRKFYGEFLDRHMSELAKAYSADIYKAQIAILKQTSQELENKARSLEAEAQRAAAEVEADYKARKANVEKKVQSELDQAGNALPQLTNPTPEQWLERATQLVTQAIANKKKLQTANNALIAKAPNALEKQKATYNADLLVDEIASLQARLDKLNAETARRKEIARQAAIRAANTYAMPANGSVVATAAGRGLIQVAQGAASLAQAISDAIAVLGRVLASAPSVMAVGFASLTYSSRTAEQWQDQTPDSVRYALGMDAAKLGLPPSVNLNAVAKASGTVDLPMRLTNEARGNTTTLSVVSTDGVSVPKAVPVRMAAYNATTGLYEVTVPSTTAEAPPLILTWTPASPPGNQNPSSTTPVVPKPVPVYEGATLTPVKATPETYPGVITLPEDLIIGFPADSGIKPIYVMFRDPRDVPGAATGKGQPVSGNWLGAASQGEGAPIPSQIADKLRGKTFKNWRDFREQFWIAVANDPELSKQFNPGSLAVMRDGGAPYVRESEQAGGRIKIEIHHKVRIADGGGVYNMGNLVAVTPKRHIEIHKGGK
B2: Pyocin AP41: S-type pyocin, SEQ ID NO: 18; effector has DNase activity (protein, listed as Pseudomonas aeruginosa)
chain: MSDVFDLGSMTTVATATGQYSFYTPPPPTPIPYLTYIARPGINKFDLPEGAKIKDLIKRYQYIGSQIPAAIMIRGVQEEIKKSTNTALANVGAIVDGELAYLASQKKEKLNPAEATPLQMASAEKAAAVELLASKQKELADARTIANAFFGYDPLTVNYVNVMNEIYGRREDKDFSFDNWSKSYSAAQKIRLIEAKISVLNSRSSALDGKVAELTRLQRLEDAQHAAEAARQTEAERLAQEQRQAEARRQAEEARRQAEAQRQAELQRLAEAEAKRVAEAEKKRQDEINARLQAIVVSESEAKRIEEIYKRLEEQDKISNPTVTTPPAVDAGSRVDDALAHTGTRVTSGGETGATGGSGRDVDTGTGQGGITARPVDVGSVSIPDRRDPKIPDQPRRDLGSLVPTFPDFPTFPSFPGVGVPAAAKPLIPAGGGAASVSRTLKTAVDLLSVARKTPGAMLGQVAAVVATMAVSSFWPKLNNGERQASFAIPVAELSPPLAVDWQAIAAAKGTVDLPYRLKTLNVDGSIQIIAVPTEPGSAAVPVRALTLDSASGTYKYTTTGPGGGTILVTPDTPPGQIDPSSSTPAVPRGPLIMPGTLLIPKEPQIESYPELDQREFNDGIYVYPEDSGIPPLYIVYRDPRDEPGVATGNGQPVTGNWLAGASQGDGVPIPSQIADQLRGKEFKSWRDFREQFWMAVSKDPSALENLSPSNRYFVSQGLAPYAVPEEHLGSKEKFEIHHVVPLESGGALYNIDNLVIVTPKRHSEIHKELKLKRKEK

Columns and labels:
P. aeruginosa = conditions: in vivo; cited from earlier work
P. aeruginosa P17 = assay: Mouse model of acute lung infection, P. aeruginosa P17; type: in vivo, Pseudomonas aeruginosa; conditions: for survival / protection: pyocin 3 mg ml^−1, endpoint 24 h, infected controls culled at 4 h
Experimental: (§1) Model of acute lung infection. Female C57/BL6 mice were inoculated intranasally with 25 μl of bacterial culture containing approximately 10^7 CFU of the selected P. aeruginosa strain^36. Antibiotic treatments were administered at either 6 h pre-infection or 1 h post-infection and were administered only once. Pyocins or tobramycin dissolved in PBS were administered via intranasal administration as described above. Two different end-points were used in these experiments. In order to determine a reduction in the bacterial load of the lungs compared to the untreated controls, all mice in the experiment were culled by carbon dioxide asphyxiation at the same time; 4-6 h post infection. To determine if mice could survive infection after pyocin or tobramycin treatment, mice were monitored closely, culled by carbon dioxide asphyxiation when required as determined by a scoring system or culled at the pre-determined 24 h time point. Uninfected mice, treated with pyocins, were used as controls in the first series of experiments in order to ensure no adverse effects from pyocin treatment. These controls were stopped in later experiments in order to reduce the number of animals used, once it was clear that the pyocins were not harmful. For CFU determination, lungs were removed aseptically and kept on ice in 750 μl of PBS until homogenised. Serial 10-fold dilutions of the homogenised lung were plated on Pseudomonas selective agar (20 g peptone, 1.5 g K2HPO4, 1.5 g MgSO4·7H2O, 10 ml glycerol, 15 g agar, 0.025 g Irgasan per litre) and incubated at 37° C. for 24 h and then room temperature for 24 h before the colonies were counted.
(§2) Since strains of P. aeruginosa are phenotypically diverse, we tested the efficacy of the pyocins against three additional isolates: P. aeruginosa P17 and P. aeruginosa P5 (mucoid), both from cystic fibrosis patients and P. aeruginosa E2, an environmental isolate. Pyocin S2 was not active against P. aeruginosa P5 or P. aeruginosa E2 in vitro therefore was not used to treat these strains in vivo and similarly pyocin L1 was not used against P. aeruginosa P17. […] Lung homogenates from P. aeruginosa E2-infected AP41-treated mice contained high levels of viable bacteria, reduced only 10-fold relative to control mice (Table 1). […] Thus, pyocins show strong efficacy against diverse strains of P. aeruginosa with pyocin S5 treatment displaying the largest effect on reducing bacterial load.

P. aeruginosa P8 = assay: Mouse model of acute lung infection, P. aeruginosa P8; type: in vivo, Pseudomonas aeruginosa; conditions: for survival: 300 μg ml^−1 and 30 μg ml^−1 (both concentrations), endpoint 24 h post-infection; for reduction of bacterial load in lung: 3 mg ml^−1 intranasal 1 h post-infection, culled 4.5 h post-infection (FIG. 1c); for reduction of bacterial numbers in lung: C57/BL6 mice, 3 mg ml^−1 intranasal 6 h pre-infection, culled 4 h post-infection (FIG. 1a); for Lowest active concentration tested: lowest concentration tested with which the treated mice survived to 24 h; for Corresponding molarity: molarity of lowest active concentration tested
Experimental: Study design. […] For all experiments 6 week-old, female, murine pathogen free C57/BL6 mice weighing 15-21 g were used (Charles Rivers Laboratories, UK). All mice received food and water ad libitum and were housed in groups during the experiments. Power calculations were used to predetermine sample size (n=6, for all treatment experiments). Mice were culled when required as determined by a scoring system or culled at the pre-determined 24 h time point. All mice, including outliers were included in the statistical analysis. Experiments were either carried out once only or repeated once (defined for each experiment).
as §1

P8AP41T [1] = assay: Mouse model of acute lung infection, AP41 tolerant strain P8AP41T; type: in vivo, Pseudomonas aeruginosa; conditions: 3 mg ml^−1 1 h post-infection; for bacterial numbers in lung homogenates: 24 h (FIG. 3b); for survival: endpoint 24 h, PBS controls culled 6 h post-infection (FIG. 3b)
Experimental: as §1
(§3) In order to determine if pyocin tolerance or resistance was acquired upon pyocin treatment in vivo, viable bacteria recovered from mice that survived infection to the 24 h end-point, in all experiments discussed in this work, were tested for pyocin susceptibility. From these experiments no pyocin resistant colonies were isolated. […] Importantly, sensitivity to pyocins S5 and L1 were unaffected in vitro in this pyocin AP41-tolerant strain (FIG. 3a) and this was also shown to be the case in vivo when mice were infected with P8AP41T.

P. aeruginosa E2 [2] = assay: Pyocin activity in vitro against P. aeruginosa E2; type: cell-based
Experimental: (§4) Pyocin sensitivity assays: overlay spot plate method. Soft agar overlay spot plates were performed using the method of ^35. 150 μl of test strain culture at OD600 nm=0.6 was added to 6 ml of 0.8% soft agar and poured over an LB agar plate. 5 μl of bacteriocin, lung homogenate or blood at varying concentrations was spotted onto the plates and incubated for 24 h at 37° C.
(§5) Since strains of P. aeruginosa are phenotypically diverse, we tested the efficacy of the pyocins against three additional isolates: P. aeruginosa P17 and P. aeruginosa P5 (mucoid), both from cystic fibrosis patients and P. aeruginosa E2, an environmental isolate.

P. aeruginosa P5 = assay: Pyocin activity in vitro against P. aeruginosa P5; type: cell-based, Pseudomonas aeruginosa
Experimental: as §4, §5

P. aeruginosa E2 [3] = assay: Mouse model of acute lung infection, P. aeruginosa E2; type: in vivo, Pseudomonas aeruginosa
Experimental: as §1, §2

[4] = system: collection of diverse environmental and clinical isolates; assay: Activity against a collection of diverse environmental and clinical isolates; type: cell-based, Pseudomonas aeruginosa
[5] = system: P. aeruginosa P5 (mucoid); assay: Mouse model of acute lung infection, P. aeruginosa P5; type: in vivo, Pseudomonas aeruginosa
Experimental: as §1, §2

P8AP41T [6] = assay: Pyocin sensitivity in vitro (spot tests) of strain P8AP41T; type: cell-based, Pseudomonas aeruginosa
Experimental: as §4, §3

[7] = pyocin 3 mg ml^−1, treated mice survived to 24 h, no treatment 4.4 × 10^5 CFU/lung

Molecule | survival / protection (P. aeruginosa P17) | bacterial count in lung, P17 (P. aeruginosa P17; [7]) | survival (P. aeruginosa P8) | reduction of bacterial load in lung (P. aeruginosa P8) [fold] | reduction of bacterial numbers in lung (P. aeruginosa P8) | Lowest active concentration tested (P. aeruginosa P8) [µg/mL] | Corresponding molarity (P. aeruginosa P8) [nM] | bacterial numbers in lung homogenates (P8AP41T [1]) | survival (P8AP41T [1]) | other results
B1 | survived until the 24 h endpoint | No colonies | survived until the endpoint of the experiment at 24 h post-infection | ~80 | approximately 25 fold | 30 | 358 | significantly reduced bacterial numbers | survived until the endpoint of the experiment at 24 h | activity in an invertebrate model of infection (P. aeruginosa): active; activity in vitro (P. aeruginosa E2 [2]): not active; activity in vitro (P. aeruginosa P5): not active
B2 | five out of six | No colonies | survived until the endpoint of the experiment at 24 h post-infection | ~130 | ~650 fold | 30 | 319 | significantly reduced bacterial numbers | survived until the endpoint of the experiment at 24 h | reduction of viable bacteria in lung homogenates relative to control mice (P. aeruginosa E2 [3]; pyocin 3 mg ml^−1, culled at 5.5 h post-infection): 10 fold; survival / protection (P. aeruginosa E2 [3]; pyocin 3 mg ml^−1, endpoint 24 h, infected controls culled at 5.5 h): failed to afford protection; bacterial count in lung, E2 (P. aeruginosa E2 [3]; pyocin 3 mg ml^−1, mice culled at same time as control (5.5 h post-infection)): 1.3 × 10^4 CFU/lung; bacterial count in lung, P17 (P. aeruginosa P17; 1 mouse that coughed up the treatment, culled at 4 h post-infection): ^+1 mouse coughed up AP41 treatment and was culled at 4 h post-infection, bacterial count 1.3 × 10^5 CFU/lung.; strains against which active [4]: 87%; survival / protection ([5]; pyocin 3 mg ml^−1, endpoint 24 h, infected controls culled at 4.5 h): successful; bacterial count in lung, P5 ([5]; pyocin 3 mg ml^−1, treated mice survived to 24 h, no treatment 1.7 × 10^5 CFU/lung): No colonies; increased tolerance of isolate P8AP41T (P8AP41T [6]; single isolate from pyocin AP41 (3 mg ml^−1 post-infection) treated bacteria): approximately 1000 fold; susceptibility of P8AP41T during infection (P8AP41T [6]; strain recovered from untreated control mice (P8AP41T*), FIG. 3a): remained tolerant

Source: patent US12162911B2, “Pulmonary administration of pyocins for treating bacterial respiratory infections” (priority 2014, dated 2024)
